Data taken from patent publication US20070172423A1, “Composition and method for modulating vasculogenesis for angiogenesis” (priority 1998, published 2007).

Key:
NIH-3T3 fibroblast cells = test: NIH-3T3 proliferation assay; format: cell-based; conditions: two days, different concentrations
Method: Cell migration assays were performed on growth arrested confluent HMVEC, BAEC or hSMC cells. Cell monolayers were wounded with a rubber policeman and washed with serum-free medium. Dishes were then incubated for 20 hours in serum-free medium containing VEGF165, PDGF-AA, (R&D Systems, Minneapolis USA) or PDGF-CC. Each assay included two dishes per condition and was repeated three times independently. Cells were photographed at 40× magnification, and migration percentage corresponding to the ratio between area of the cells and the total area of the wound (Biocom visiol@b 2000 version 4.52, San Diego). For HMVEC proliferation assay, cells were seeded in 96-well plates (5 wells per condition), and incubated with VEGF, PDGF-AA, or PDGF-CC (50 ng/ml) after serum starvation. After 7 days, viable cells were counted using the cell Titer-glo luminescent cell viability assay. For NIH-3T3 and hSMC proliferation assay, cells cultured in 96-well plates were serum-starved overnight, followed by treatment with growth factors at different concentrations. Two days later, cell numbers were counted and proliferation percentage calculated, using cells cultured in medium containing 10% serum as control. Aortic ring assay was performed as described 51. […] Aortic rings were analysed at day 9 of culturing. […]

PDGF beta receptors = PDGF beta receptors (Homo sapiens, UniProt P09619); test: Binding of radiolabeled truncated PDGF-C to PAE-1 cells expressing PDGF beta receptors; design: expressed in transfected cells; host or cells: porcine aortic endothelial (PAE-1) cells; conditions: 125I-labeled protein, on ice 90 minutes
Sequence of PDGF beta receptors (P09619 33-1106): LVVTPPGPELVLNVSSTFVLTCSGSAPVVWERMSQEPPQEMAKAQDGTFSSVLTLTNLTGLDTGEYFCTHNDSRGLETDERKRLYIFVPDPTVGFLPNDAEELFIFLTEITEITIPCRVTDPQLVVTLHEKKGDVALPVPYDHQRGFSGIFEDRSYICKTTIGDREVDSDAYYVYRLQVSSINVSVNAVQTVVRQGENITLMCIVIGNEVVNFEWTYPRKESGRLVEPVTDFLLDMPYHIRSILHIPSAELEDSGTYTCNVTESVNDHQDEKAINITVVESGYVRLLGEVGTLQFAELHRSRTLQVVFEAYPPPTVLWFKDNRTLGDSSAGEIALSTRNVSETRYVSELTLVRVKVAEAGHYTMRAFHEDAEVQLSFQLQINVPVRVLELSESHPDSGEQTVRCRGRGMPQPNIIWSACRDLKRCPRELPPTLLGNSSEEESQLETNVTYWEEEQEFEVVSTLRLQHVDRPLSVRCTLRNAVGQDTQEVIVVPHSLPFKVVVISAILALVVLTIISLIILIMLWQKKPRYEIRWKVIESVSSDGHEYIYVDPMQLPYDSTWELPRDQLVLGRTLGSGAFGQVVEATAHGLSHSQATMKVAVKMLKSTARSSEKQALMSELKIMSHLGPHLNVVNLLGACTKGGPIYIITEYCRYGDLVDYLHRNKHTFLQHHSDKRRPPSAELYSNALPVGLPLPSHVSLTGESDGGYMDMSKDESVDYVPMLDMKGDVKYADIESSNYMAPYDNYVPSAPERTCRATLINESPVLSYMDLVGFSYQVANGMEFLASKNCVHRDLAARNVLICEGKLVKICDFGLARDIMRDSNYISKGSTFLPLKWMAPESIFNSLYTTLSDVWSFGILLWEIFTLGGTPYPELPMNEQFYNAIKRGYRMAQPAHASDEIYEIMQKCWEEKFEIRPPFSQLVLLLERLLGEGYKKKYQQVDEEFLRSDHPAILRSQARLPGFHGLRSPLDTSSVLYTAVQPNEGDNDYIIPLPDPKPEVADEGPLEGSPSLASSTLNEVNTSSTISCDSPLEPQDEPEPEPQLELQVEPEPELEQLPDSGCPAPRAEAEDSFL
Method: To assess the interactions between truncated PDGF-C and the PDGF alpha and beta receptors, truncated PDGF-C was tested for its capacity to bind to porcine aortic endothelial-1 (PAE-1) cells expressing PDGF alpha or beta receptors, respectively (Eriksson et al., EMBO J, 1992 11:543-550). The binding experiments were performed essentially as described in Heldin et al. (EMBO J, 1988 7:1387 1393). Five micrograms of truncated PDGF-C protein in ten microliters of sodium borate buffer was radiolabeled using the Bolton-Hunter reagent (Amersham) to a specific activity of 4×10^5 cpm/ng. Different concentrations of radiolabeled truncated PDGF-C, with or without added unlabeled protein, in binding buffer (PBS containing 1 mg/ml of bovine serum albumin) was added to the receptor expressing PAE-1 cells plated in 24-well culture dishes on ice for 90 minutes. After three washes with binding buffer, cell-bound ^125I-labeled PDGF-C was extracted by lysis of cells in 20 mM Tris-HCl, pH 7.5, 10% glycerol, 1% Triton X-100. The amount of cell-bound radioactivity was determined in a gamma-counter. Non-specific binding was estimated by including a 100-fold molar excess of truncated PDGF-C in some experiments. […] The binding was specific as radiolabeled PDGF-C was quantitatively displaced by a 100-fold molar excess of unlabeled protein.

[1] = test system: endothelial progenitor cells (EPCs); test: EPC mobilization assay; format: in vivo, mice
Method: For EPC mobilization assay, mice were treated with PDGF-CC protein (4.5 μg/day) immediately after femoral artery ligation using subcutaneously implanted osmotic minipumps (Alzet, type 2001). After two or five days, mice were sacrificed and spleens harvested for EPC analysis using procedures described previously (Asahara et al., Circ Res, 1999 85:221-8; Dimmeler et al., J. Clin. Invest., 2001 108:391-397). Spleens were mechanically minced using syringe plungers and laid over Ficoll to isolate splenocytes. Splenocytes were seeded into fibronectin-coated 24-well plates in 0.5 ml EBM medium. After three weeks of culturing, adherent cells were stained for Dil-Ac-LDL/lectin and number of the positive cells counted. Late outgrowth EPCs (after 3 weeks of culture) were identified by metabolic uptake of DiI-acetylated-LDL (Molecular Probes) and positive staining of Alexa 488-labeled isolectin B4 (Molecular Probes). Quantification of the EPC density was performed by confocal microscopy in five microscopic fields at 200× magnification, and average EPC density calculated.
To examine the possible mechanism of how PDGF-CC stimulates vessel growth and maturation, we next assessed its effects on vascular endothelial progenitor cells (EPCs). […] By scoring after 3 weeks, only late-outgrowth EPCs, but not surviving sloughed-off endothelial cells, are selectively assayed (Lin et al., J Clin Invest, 2000 105:71-7; Rafii, S., J Clin Invest, 2000 105:17-9).

human VEGFR-1 = target: T1, human VEGFR-1 (Homo sapiens, UniProt P17948); test: Binding to soluble VEGFR-1-Ig fusion protein; conditions: 35S-labeled protein in conditioned medium from 293 cells, precipitation with Ig-fusion protein
T1 construct: soluble Ig-fusion proteins containing the extracellular domains of human VEGFR-1, VEGFR-2 and VEGFR-3; made in house; host or cells: human 293 EBNA cells, transient expression
T1 sequence (P17948 27-758 limits assumed): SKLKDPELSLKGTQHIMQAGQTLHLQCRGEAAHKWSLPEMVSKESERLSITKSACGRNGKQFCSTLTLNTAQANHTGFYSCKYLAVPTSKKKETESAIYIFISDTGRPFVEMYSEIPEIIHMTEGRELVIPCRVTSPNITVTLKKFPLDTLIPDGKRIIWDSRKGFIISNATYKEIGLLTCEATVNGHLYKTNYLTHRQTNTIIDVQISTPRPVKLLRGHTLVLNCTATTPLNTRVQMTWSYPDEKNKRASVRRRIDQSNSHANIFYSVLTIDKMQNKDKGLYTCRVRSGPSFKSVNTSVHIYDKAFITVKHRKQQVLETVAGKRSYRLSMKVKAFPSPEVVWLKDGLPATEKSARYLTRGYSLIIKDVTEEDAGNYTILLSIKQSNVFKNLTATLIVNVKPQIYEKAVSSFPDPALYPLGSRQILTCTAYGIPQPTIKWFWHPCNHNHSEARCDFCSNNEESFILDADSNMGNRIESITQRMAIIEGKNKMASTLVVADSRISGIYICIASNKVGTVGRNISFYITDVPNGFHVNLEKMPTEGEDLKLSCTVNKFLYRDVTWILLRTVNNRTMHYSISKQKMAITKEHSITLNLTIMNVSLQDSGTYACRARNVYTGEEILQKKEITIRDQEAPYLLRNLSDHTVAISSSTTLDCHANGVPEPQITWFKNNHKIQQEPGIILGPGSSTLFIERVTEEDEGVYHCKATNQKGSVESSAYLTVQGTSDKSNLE
Method: To assess the interactions between full length and truncated PDGF-C and the VEGF receptors, full length and truncated PDGF-C were tested for their capacity to bind to soluble Ig-fusion proteins containing the extracellular domains of human VEGFR-1, VEGFR-2 and VEGFR-3 (Olofsson et al., Proc. Natl. Acad. Sci. USA, 1998 95:11709-11714). The fusion proteins, designated VEGFR-1-Ig, VEGFR-2-Ig and VEGFR-3-Ig, were transiently expressed in human 293 EBNA cells. All Ig fusion proteins were human VEGFRs. Cells were incubated for 24 hours after transfection, washed with Dulbecco's Modified Eagle Medium (DMEM) containing 0.2% bovine serum albumin and starved for 24 hours. The fusion proteins were then precipitated from the clarified conditioned medium using protein A-Sepharose beads (Pharmacia). The beads were combined with 100 microliters of 10× binding buffer (5% bovine serum albumin, 0.2% Tween 20 and 10 µg/ml heparin) and 900 microliter of conditioned medium from 293 cells that had been transfected with mammalian expression plasmids encoding full length or truncated PDGF-C or control vector, then metabolically labeled with ^35S-cysteine and methionine (Promix, Amersham) for 4 to 6 hours. […] Labeled proteins that were bound to the Ig-fusion proteins were analyzed by SDS-PAGE under reducing conditions. Radiolabeled proteins were detected using a phosphorimager analyzer.

B1: PDGF-CC: recombinant human PDGF-CC core domain homodimer, residues 230-345 of full-length PDGF-C (SEQ ID NO:40), produced in baculovirus infected insect cells (protein)
chain: GRKSRVVDLNLLTEEVRLYSCTPRNFSVSIREELKRTDTIFWPGCLLVKRCGGNCACCLHNCNECQCVPSKVTKKYHEVLQLRPKTGVRGLHKSLTDVALEHHEECDCVCRGSTGG
modifications: homodimer; PDGF-C core domain
proliferation of cultured NIH-3T3 fibroblast cells (NIH-3T3 fibroblast cells): stimulated
binding to beta receptor expressing cells (PDGF beta receptors): not
mobilization of EPCs ([1]; baseline conditions (no ischemia)): did not affect
augmentation of EPC mobilization ([1]; femoral artery ligation, day five): persisted to day five, albeit at a lower level
augmentation of EPC mobilization above control group ([1]; femoral artery ligation, two days, 4.5 μg/day via minipump): approximately 3 fold
augmentation of EPC mobilization compared with the vehicle group (FIG. 38 legend) ([1]; from day 2 to day 5 after hind limb ischemia): ~4 fold
interaction with VEGFR-1-Ig (human VEGFR-1): failed to show any interaction
